Test results reported in patent US20160053025A1 (SAMSUNG ELECTRONICS, published 2016).

Assays:
[1] = target: T1, c-Met-Fc (#358-MT/CF, R&D Systems) (human, UniProt P08581 25-932); test: SPR, Biacore T100; bispecific antibody captured by human Fab binder on CM5, c-Met-Fc as analyte
T1 construct: also called human c-Met/Fc fusion protein (R&D Systems); human c-Met/Fc protein; not shown: Fc part
Procedure: The binding affinity of the anti-c-Met/anti-Ang2 bispecific antibody prepared in Example 1 to c-Met was measured using Biacore T100(GE). For this, a human Fab binder (#28-9583-25, GE Healthcare) was fixed on the surface of CM5 chip (#BR-1005-30, GE) according to manufacturer's manual. About 90˜120 RU of the anti-c-Met/anti-Ang2 bispecific antibody was captured and then, c-Met-Fc (#358-MT/CF, R&D Systems) was added to the captured antibody at various concentrations. Hereto, 10 mM Glycine-HCl (pH 1.5) solution was added, to regenerate the surface. To measure the affinity, the above obtained data were fitted using BIAevaluation software (GE Healthcare, Biacore T100 evaluation software).

[2] = target: T2, recombinant hAng-2 (C-His, R&D Systems) (human, UniProt O15123 19-496); test: SPR, Biacore T100; C-terminal His-tagged human Ang2 captured by anti-histidine antibody on CM5, MA01 as analyte
T2 construct: Bought protein; also called human Ang-2 protein; C-terminal histidine-tagged human Ang2 (R&D Systems); not shown: C-terminal His tag
T2 sequence: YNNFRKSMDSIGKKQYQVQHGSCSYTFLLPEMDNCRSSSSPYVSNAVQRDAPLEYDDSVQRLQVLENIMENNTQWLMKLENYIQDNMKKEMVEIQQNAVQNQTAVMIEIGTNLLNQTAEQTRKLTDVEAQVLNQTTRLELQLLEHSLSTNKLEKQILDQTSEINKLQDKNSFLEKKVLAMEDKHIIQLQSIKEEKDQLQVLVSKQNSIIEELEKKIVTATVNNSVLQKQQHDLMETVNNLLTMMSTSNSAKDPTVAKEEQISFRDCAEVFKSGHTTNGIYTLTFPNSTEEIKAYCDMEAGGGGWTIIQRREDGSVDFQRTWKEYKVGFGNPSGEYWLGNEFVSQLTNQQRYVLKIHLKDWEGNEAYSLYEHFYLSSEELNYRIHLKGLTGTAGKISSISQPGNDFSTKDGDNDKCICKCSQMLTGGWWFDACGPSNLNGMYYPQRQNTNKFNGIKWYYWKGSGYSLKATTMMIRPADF
Procedure: The binding affinity of the anti-c-Met/anti-Ang2 bispecific antibody prepared in Example 1 to Ang2 was measured using Biacore T100(GE). For this, an anti-histidine antibody (R&D Systems) was fixed on the surface of CM5 chip (#BR-1005-30, GE) according to manufacturer's manual. C-terminal histidine-tagged human Ang2 (R&D Systems) was captured and then, anti-c-Met/anti-Ang2 bispecific antibody MA01 was added to the captured antigen (Ang2) at various concentrations. Hereto, 10 mM Glycine-HCl (pH 1.5) solution was added, to regenerate the surface. To measure the affinity, the above obtained data were fitted using BIAevaluation software (GE Healthcare, Biacore T100 evaluation software).

T1 sequence (P08581 25-932 limits assumed): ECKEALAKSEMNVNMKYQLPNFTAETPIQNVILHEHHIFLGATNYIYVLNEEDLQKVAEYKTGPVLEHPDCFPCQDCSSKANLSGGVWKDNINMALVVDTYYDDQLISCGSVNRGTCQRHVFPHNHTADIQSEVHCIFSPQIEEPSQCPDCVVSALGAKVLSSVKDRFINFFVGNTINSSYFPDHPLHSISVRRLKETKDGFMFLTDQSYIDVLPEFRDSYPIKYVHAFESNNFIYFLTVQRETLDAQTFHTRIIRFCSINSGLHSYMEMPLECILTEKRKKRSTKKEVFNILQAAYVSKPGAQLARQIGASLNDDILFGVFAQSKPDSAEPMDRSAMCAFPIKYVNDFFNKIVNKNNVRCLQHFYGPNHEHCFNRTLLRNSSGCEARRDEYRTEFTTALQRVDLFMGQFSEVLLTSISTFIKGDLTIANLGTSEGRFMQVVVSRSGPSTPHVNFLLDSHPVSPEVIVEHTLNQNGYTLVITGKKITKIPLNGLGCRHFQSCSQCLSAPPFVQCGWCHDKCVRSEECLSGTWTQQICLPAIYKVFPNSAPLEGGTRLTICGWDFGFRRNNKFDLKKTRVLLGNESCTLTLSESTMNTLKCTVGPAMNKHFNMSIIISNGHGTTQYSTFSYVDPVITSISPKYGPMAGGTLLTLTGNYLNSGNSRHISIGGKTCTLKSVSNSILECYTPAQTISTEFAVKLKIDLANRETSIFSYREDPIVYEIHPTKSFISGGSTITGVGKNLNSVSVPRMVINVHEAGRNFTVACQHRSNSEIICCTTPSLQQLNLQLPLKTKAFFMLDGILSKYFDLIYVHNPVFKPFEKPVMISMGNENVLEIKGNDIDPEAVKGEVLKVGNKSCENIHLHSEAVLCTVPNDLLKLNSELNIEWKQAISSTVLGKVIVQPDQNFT

Kd [1]: 0.07 nM
Kd [2]: 71.6 nM
koff [2]: 0.00648 s⁻¹
kon [2]: 90500 M⁻¹ s⁻¹
B1: anti-c-Met/anti-Ang2 bispecific antibody MA01 (bispecific antibody, human IgG2, kappa)
heavy: EVQLVESGGGLVQPGGSLRLSCAASGFTFTDYYMSWVRQAPGKGLEWLGFIRNKANGYTTEYSASVKGRFTISRDNSKNTLYLQMNSLRAEDTAVYYCARDNWFAYWGQGTLVTVSSASTKGPSVFPLAPCSRSTSESTAALGCLVKDYFPEPVTVSWNSGALTSGVHTFPAVLQSSGLYSLSSVVTVPSSNFGTQTYTCNVDHKPSNTKVDKTVERKCCVECPPCPAPPVAGPSVFLFPPKPKDTLMISRTPEVTCVVVDVSHEDPEVQFNWYVDGVEVHNAKTKPREEQFNSTFRVVSVLTVVHQDWLNGKEYKCKVSNKGLPAPIEKTISKTKGQPREPQVYTLPPSREEMTKNQVSLTCLVKGFYPSDIAVEWESNGQPENNYKTTPPMLDSDGSFFLYSKLTVDKSRWQQGNVFSCSVMHEALHNHYTQKSLSLSPGKGGGGSGGGGSQVQLQESGPGLVKPSETLSLTCAVSGYSITSDYAWNWIRQPPGKGLEWMGKISYSGKTDYNPSLKSRSTISRDTSKNQFSLKLSSVTAADTAVYYCARGNFEGAMDYWGQGTLVTVSSGGGGSGGGGSGGGGSDIQMTQSPSSLSASVGDRVTITCKASQSVSNDVAWYQQKPGKAPKLLIYYASNRYPGVPSRFSGSGSGTDFTLTISSLQPEDFATYYCQQDYSSPWTFGGGTKLEIK
light: DIQMTQSPSSLSASVGDRVTITCKSSQSLLASGNQNNYLAWYQQKPGKAPKMLIIWASTRVSGVPSRFSGSGSGTDFTLTISSLQPEDFATYYCQQSYSRPYTFGQGTKVEIKRTVAAPSVFIFPPSDEQLKSGTASVVCLLNNFYPREAKVQWKVDNALQSGNSQESVTEQDSKDSTYSLSSTLTLSKADYEKHKVYACEVTHQGLSSPVTKSFNRGEC
